Data taken from PMC7279403, “Zygotic Vsx1 Plays a Key Role in Defining V2a Interneuron Sub-Lineage by Directly Repressing tal1 Transcription in Zebrafish”.

Tests used:
[1] = biological target: T1, Vsx1 homeodomain (Vsx1-Homeodomain-His) (zebrafish, UniProt O42250 132-224); assay: competition; 500-fold or more excess against biotin site 12 probe; no competition; LightShift Chemiluminescent EMSA kit (Pierce), 6% native PAGE; binding buffer as in He et al. [23], salt, pH and temperature not given; conditions: protein: recombinant; tags: His in the Results; label: none
T1 sequence (O42250 132-224): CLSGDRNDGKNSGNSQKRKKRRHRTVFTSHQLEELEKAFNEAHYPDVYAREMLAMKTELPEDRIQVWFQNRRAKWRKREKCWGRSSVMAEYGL

[2] = biological target: T1, Vsx1 homeodomain (Vsx1-Homeodomain-His); assay: competition; 500-fold or more excess against biotin site 14 probe; no competition; LightShift Chemiluminescent EMSA kit (Pierce), 6% native PAGE; binding buffer as in He et al. [23], salt, pH and temperature not given; conditions: protein: recombinant; tags: His in the Results; label: none
[3] = biological target: T1, Vsx1 homeodomain (Vsx1-Homeodomain-His); assay: competition; 500-fold excess against biotin site 14 probe; only weak complex left; LightShift Chemiluminescent EMSA kit (Pierce), 6% native PAGE; binding buffer as in He et al. [23], salt, pH and temperature not given; conditions: protein: recombinant; tags: His in the Results; label: none
[4] = biological target: T1, Vsx1 homeodomain (Vsx1-Homeodomain-His); assay: competition; 500-fold excess against biotin site 12 probe; only weak complex left; LightShift Chemiluminescent EMSA kit (Pierce), 6% native PAGE; binding buffer as in He et al. [23], salt, pH and temperature not given; conditions: protein: recombinant; tags: His in the Results; label: none
[5] = biological target: T1, Vsx1 homeodomain (Vsx1-Homeodomain-His); assay: EMSA; LightShift Chemiluminescent EMSA kit (Pierce), 6% native PAGE; binding buffer as in He et al. [23], salt, pH and temperature not given; conditions: protein: recombinant; tags: His in the Results; label: biotin 5' end (labeled probe)

B1: tal1 site 12 mutant competitor (TAATTA to TCGATA) (dsDNA)
DNA 1: TGGCCGCATCGATCGATTCTGATTGAG
DNA 2: CTCAATCAGAATCGATCGATGCGGCCA
Q: Does B1 bind [1]?
A: no binding

B2: tal1 site 14 mutant competitor (TAATTA to TCGATA) (dsDNA)
DNA 1: ACGCAGATCATCGATAGGCGTTTGATC
DNA 2: GATCAAACGCCTATCGATGATCTGCGT
Q: Does B2 bind [2]?
A: no binding

B3: tal1 site 14 unlabeled wild-type competitor (dsDNA)
DNA 1: ACGCAGATCATAATTAGGCGTTTGATC
DNA 2: GATCAAACGCCTAATTATGATCTGCGT
Q: Does B3 bind [3]?
A: binds

B4: tal1 site 12 unlabeled wild-type competitor (dsDNA)
DNA 1: TGGCCGCATAATTAATTTCTGATTGAG
DNA 2: CTCAATCAGAAATTAATTATGCGGCCA
Q: Does B4 bind [4]?
A: binds

B5: tal1 binding site 14 probe (dsDNA)
DNA 1: ACGCAGATCATAATTAGGCGTTTGATC
DNA 2: GATCAAACGCCTAATTATGATCTGCGT
Q: Does B5 bind [5]?
A: binds

B6: tal1 binding site 12 probe (dsDNA)
DNA 1: TGGCCGCATAATTAATTTCTGATTGAG
DNA 2: CTCAATCAGAAATTAATTATGCGGCCA
Q: Does B6 bind [5]?
A: binds
